These results are taken from the supplement of paper PMC12764529.

Some results are limits rather than exact numbers.

The nature of this data set: folding stability dG unfold (combined trypsin and chymotrypsin); higher = more stable. The method, then: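 Folding stability of de novo designed mini-proteins (<80 aa, no Cys; designed by TrROS, TrMRF, ProteinMPNN and the joint model) was measured by cDNA display proteolysis with trypsin and chymotrypsin. Each protease was used at 11 concentrations in a threefold dilution series plus a no-protease condition. K50 was inferred by Bayesian fitting of sequencing counts, and dG unfold was derived against a sequence-predicted unfolded-state K50 (Tsuboyama et al. method). Sequences shown include variable-length N-terminal GS-type padding (SAGGSAGG...) inside a display construct carrying a PA tag. Rows were kept only if the AF2 dimer inter-PAE was >15, to exclude likely homo-oligomers.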
Regarding “SAGGSAGGEKTASFKVKGNLVAKGVTTFYSPTSDEYTIETEIEKVPPGPKPEITPEEIAKNYLLSAGGSAGG [r6_148_JUSTAS]”, the “folding stability dG unfold” value was less than -1 kcal/mol.
Take “SAGGSAGGGKVPKPVPGPLTILFDVAEDELPPEEIRKLFPDAKVYRFPKGLRVTVPVNGKLVPGSAGGSAGG [r6_738_TrMRF]”: the “folding stability dG unfold” value is less than -1 kcal/mol.
Turning to “SAGGSAGGGMITVPLSEEISMANLPEEERAAGEELGPGSVIRKLLEIKKYPVKPFRFIEKDKILSAGGSAGG [r6_547_JUSTAS]”, the “folding stability dG unfold” value was less than -1 kcal/mol.
For “SAGGSAGGMELVSEERLPDGSRRFTVRVDPDKSLSLTLPDAGEPVAATVTETFPEEGLVTVELASAGGSAGG [r6_177_JUSTAS]”, the “folding stability dG unfold” value is less than -1 kcal/mol.
For the sequence “SAGGSAGGPPMEPIPFRVRVDEVEHDPPNGNVVITIKDGDKNPHTINIPPEMAKNMPIEPGDELSAGGSAGG [r6_915_TrROS]”, the “folding stability dG unfold” value is less than -1 kcal/mol.
As for “SAGGSAGGQKIKIDDVQKNPGNGNYYVRIRPPGKPYEYQFPPGDSADDIADELELNGIDDIEVYSAGGSAGG [r6_83_TrROS]”, the “folding stability dG unfold” value is less than -1 kcal/mol.
Regarding “SAGGSAGGRIRDPDGNPFKIKKVEPQPSPNGQPMIKFRYPDNGKEHTIPRDNLPPWLPDNAKPVSAGGSAGG [r6_371_TrROS]”, the “folding stability dG unfold” value is less than -1 kcal/mol.
On to “SAGGSAGGRVITLKEEELKKLIEEGKVDSVDVEKLPDGTVKAKPIIKEKEELSPKNKEKIFELKSAGGSAGG [r6_279_JUSTAS]”, for which the “folding stability dG unfold” value was less than -1 kcal/mol.
On to “SAGGSAGGSAAPIPPDQSATSLTLLPDGTVRKTTTTYPPPEFVTTTTTTIPISPEEGAAAGSAGGSAGGSAG [r3_437_JUSTAS]”, for which the “folding stability dG unfold” value is less than -1 kcal/mol.
Regarding “SAGGSAGGSAEPDPSSPEPYEVLEVVPRTIVSRVEQPGNPQLLRQTVDVVIIKNPSNGLLDSAGGSAGGSAG [r3_391_JUSTAS]”, the “folding stability dG unfold” value was less than -1 kcal/mol.
The figure for “SAGGSAGGSAGAPDEPIQITMRLKYPDGQKREHNTPFPPGKDIEIKNMPPGAKIENIEITSAGGSAGGSAGG [r11_181_TrROS]” is less than -1 kcal/mol; for “SAGGSAGGSAGDLGLEDDTFILKATYPDGTPATIPLKKSEISKISKDNIKSIEFYPKSKLSAGGSAGGSAGG [r11_779_JUSTAS]” it is less than -1 kcal/mol.
For the sequence “SAGGSAGGSAGDNGKPEVKPVRIPIFIPGPKEQAKRIANYLYGFGMPIDVEVFDPDGKPISAGGSAGGSAGG [r11_703_TrROS]”, the “folding stability dG unfold” value was less than -1 kcal/mol.
For the sequence “SAGGSAGGSAGEITIRMPMPDPDGGRRRIQFTIEKIKLPPGQKIKIVSVGPNGSFTIKPKSAGGSAGGSAGG [r11_733_TrROS]”, the “folding stability dG unfold” value is less than -1 kcal/mol.
Turning to “SAGGSAGGSAGEPVKIPITIKMRDNGKPREQPFKVEVEPNPDGNTQHKLNMPEGNITEIESAGGSAGGSAGG [r11_816_TrROS]”, the “folding stability dG unfold” value was less than -1 kcal/mol.
“SAGGSAGGSAGGEIKVRIDEYDPPSGFFRIEPPDGRTRQIPVPPGMNPEDLKGDTVTLKPSAGGSAGGSAGG [r7_296_TrROS]”: the “folding stability dG unfold” value is less than -1 kcal/mol.
With “SAGGSAGGSAGGELVLPELNKPLNVEKEEVVVEGGEEVVKIKATGSGKPFEYVVPKGLGSAGGSAGGSAGGS [r10_517_JUSTAS]” the figure was less than -1 kcal/mol; with “SAGGSAGGSAGGGKVKSIELNPETDLALVEIEPEDGGTATVVLPLDLLENIPLDGTLTISAGGSAGGSAGGS [r10_255_TrMRF]”, less than -1 kcal/mol; with “SAGGSAGGSAGGGPDWVLRRRTLEESSPVSTTPNPTGRRRTGYRTLVREEEVVLPPDLESAGGSAGGSAGGS [r10_524_JUSTAS]”, less than -1 kcal/mol.
“SAGGSAGGSAGGGSVHMPPLINWQEEEFEYESEEPVHIKRLVYKHPYSNEVEEEIEILLSAGGSAGGSAGGS [r10_881_JUSTAS]”: the “folding stability dG unfold” value was less than -1 kcal/mol.
For the sequence “SAGGSAGGSAGGGSVTESPSYVVTRSADPAGPALYTVTDLSTGVPSSSTVAPDAPAVVPPSAGGSAGGSAGG [r7_177_JUSTAS]”, the “folding stability dG unfold” value is less than -1 kcal/mol.
Turning to “SAGGSAGGSAGGIKPGDKVRIMQMDKNGEMRGPVEIDNVEDGKITIKLPPPYRIMIQPYSAGGSAGGSAGGS [r10_1257_TrROS]”, the “folding stability dG unfold” value was less than -1 kcal/mol.
